This experiment concerns the target ABD1 of PLS2 (human) (UniProt P13796). Kind of experiment: fluorescence polarisation. For orientation: Polarisation of emitted light reports the rotation of a fluorescent probe.

ABD1 of PLS2 (human), sequence (P13796 98-375): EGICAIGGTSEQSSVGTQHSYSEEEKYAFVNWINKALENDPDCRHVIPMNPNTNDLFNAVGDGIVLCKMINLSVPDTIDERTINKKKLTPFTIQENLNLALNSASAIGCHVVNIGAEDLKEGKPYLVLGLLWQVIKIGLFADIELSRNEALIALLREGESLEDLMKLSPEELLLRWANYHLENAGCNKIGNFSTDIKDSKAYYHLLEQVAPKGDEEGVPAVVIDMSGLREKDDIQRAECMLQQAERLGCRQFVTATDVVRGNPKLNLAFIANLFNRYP

By Kd is commonly meant the equilibrium constant for the complex coming apart. A higher Kd goes with a looser complex. “ABD2 of PLS2 with S406E (from UniProt P13796 1-627) (domain or fragment)” showed a Kd of 2000 nM.

The record behind these values is publication doi:10.1101/2021.12.01.470822.
